The target in assay [1] is c-Met (hepatocyte growth factor receptor, HGFR), endogenous on tumour cell lines (UniProt P08581). The assay can be described thus: cell-based or functional assay.
The target is the same in assay [2]. Nature of the assay: apparent Kd, flow cytometry on H292 cells (endogenous cMet). (In general: In flow cytometry, cells or beads pass a laser one at a time.)
The target is the same in assay [3]. The assay can be described thus: apparent Kd, flow cytometry on SNU-5 cells (endogenous cMet).

Bounds are passed on as bounds.

Chain of c-Met (hepatocyte growth factor receptor, HGFR), endogenous on tumour cell lines (P08581 25-1390 limits assumed): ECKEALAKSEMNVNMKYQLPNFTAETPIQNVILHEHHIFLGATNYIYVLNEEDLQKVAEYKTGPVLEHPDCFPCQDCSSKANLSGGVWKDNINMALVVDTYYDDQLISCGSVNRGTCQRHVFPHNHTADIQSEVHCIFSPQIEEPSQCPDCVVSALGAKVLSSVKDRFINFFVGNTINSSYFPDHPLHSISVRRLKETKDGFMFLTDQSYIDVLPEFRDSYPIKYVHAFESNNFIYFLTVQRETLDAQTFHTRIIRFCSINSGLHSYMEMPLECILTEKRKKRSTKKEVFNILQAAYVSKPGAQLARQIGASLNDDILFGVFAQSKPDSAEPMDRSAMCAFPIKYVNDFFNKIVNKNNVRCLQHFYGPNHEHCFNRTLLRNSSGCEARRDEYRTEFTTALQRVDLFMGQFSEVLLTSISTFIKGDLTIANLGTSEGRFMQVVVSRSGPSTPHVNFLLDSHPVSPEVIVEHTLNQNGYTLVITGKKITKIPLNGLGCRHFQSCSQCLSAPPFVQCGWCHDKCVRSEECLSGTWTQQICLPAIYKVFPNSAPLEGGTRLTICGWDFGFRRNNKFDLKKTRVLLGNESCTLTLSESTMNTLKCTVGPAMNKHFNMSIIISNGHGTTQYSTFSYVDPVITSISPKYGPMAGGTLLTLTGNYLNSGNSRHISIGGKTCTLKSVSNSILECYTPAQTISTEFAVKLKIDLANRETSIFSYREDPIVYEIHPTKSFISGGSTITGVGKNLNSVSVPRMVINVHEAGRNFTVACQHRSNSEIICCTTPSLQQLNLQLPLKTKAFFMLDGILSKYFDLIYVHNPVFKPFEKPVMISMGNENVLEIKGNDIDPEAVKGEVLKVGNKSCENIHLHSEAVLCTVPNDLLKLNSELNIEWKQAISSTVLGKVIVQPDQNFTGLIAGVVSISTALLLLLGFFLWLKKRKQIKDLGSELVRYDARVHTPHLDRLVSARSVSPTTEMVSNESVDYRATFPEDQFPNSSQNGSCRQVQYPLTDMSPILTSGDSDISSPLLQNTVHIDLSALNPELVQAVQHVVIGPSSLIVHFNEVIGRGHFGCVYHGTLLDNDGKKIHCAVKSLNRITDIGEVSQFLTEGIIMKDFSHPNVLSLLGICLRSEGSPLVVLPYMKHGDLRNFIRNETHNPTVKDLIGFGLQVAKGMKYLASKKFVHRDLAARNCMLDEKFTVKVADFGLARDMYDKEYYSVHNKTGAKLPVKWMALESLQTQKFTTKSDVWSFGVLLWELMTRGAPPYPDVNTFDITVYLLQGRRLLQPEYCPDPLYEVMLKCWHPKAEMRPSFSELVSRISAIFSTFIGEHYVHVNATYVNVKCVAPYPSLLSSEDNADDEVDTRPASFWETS

Regarding “palivizumab (v22277), unconjugated anti-RSV antibody”, in assay [1], the Mean Object Fluorescence (Internalized), 5 Hours 37° C., EBC-1, 0.3 nM was determined as 2690; the Mean Object Fluorescence (Internalized), 5 Hours 37° C., EBC-1, 1.9 nM amounted to 3050; the Mean Object Fluorescence (Internalized), 5 Hours 37° C., EBC-1, 12 nM is 1990; the Mean Object Fluorescence (Internalized), 5 Hours 37° C., EBC-1, 70 nM is 2600. In addition, in assay [1], the Mean Object Fluorescence (Internalized), 5 Hours 37° C., HT-29, 0.3 nM turned out to be 2750; the Mean Object Fluorescence (Internalized), 5 Hours 37° C., HT-29, 1.9 nM was determined as 2360; the Mean Object Fluorescence (Internalized), 5 Hours 37° C., HT-29, 12 nM was 2330; the Mean Object Fluorescence (Internalized), 5 Hours 37° C., HT-29, 70 nM is 2290. The Kd in assay [2] was above 50 nM. Besides, the Kd in assay [3] was above 50 nM.

The values above are taken from US20250222128A1, “ANTIBODY DRUG-CONJUGATES TARGETING C-MET AND METHODS OF USE THEREOF” (Zymeworks BC Inc., priority 2022, published 2025).
